This is an account of results in US20190359687A1 (Bayer, published 2019).

No end group written: not given here.

In experiment [1] the target is T1, GP9 peptide of the human GPA ectodomain (human, not fully specified (N-terminus)).
T1 peptide: RTVYPPEE
The experiment is described as follows: ELISA, Fab 0.05 ug/ml on biotin-peptide on streptavidin plate.
From the text: These peptides were attached to the surface of a streptavidin coated plate via a biotin moiety that was present at the N-terminus of each peptide.

Experiment [2] concerns the target T2, Cynomolgus monkey glycophorin A on Cynomolgus monkey red blood cells or red blood cell membranes (Cynomolgus monkey).
T2 construct: whole, on cells; also called Cyno RBC; Cynomolgus monkey RBC membranes
As to the kind of experiment: Fab 7 ug/ml on intact cyno RBC, unbound Fab by ELISA; pre-dilution.
Method: (§1) The binding of affinity matured Fab antibodies to intact Cynomolgus monkey RBC was measured. Cynomolgus monkey RBC were isolated from fresh anti-coagulated blood by centrifugation through a ficol gradient and washing in PBS buffer. RBC diluted to 1/10th of normal hematocrit were incubated with the Fab at a final concentration of 7 ug/ml for 1 hour at room temperature on a rotating shaker after which a sample was taken and the RBC were pelleted by centrifugation and the supernatant was collected. The remaining RBC suspension was diluted 200-fold in PBS buffer and incubated for a total of 2 hours at room temperature on a rotating shaker and samples were removed at 0, 5 min, 20 min, 1 h and 2 h and the RBC pelleted and the supernatant collected. […] The amount of Fab in the supernatants was then measured using an ELISA assay and the results used to calculate the percentage of the input Fab that was bound to the RBC.

For experiment [3], the target named is T3, human glycophorin A on human red blood cells or red blood cell membranes (human, UniProt P02724 20-150).
T3 construct: whole, on cells; also called hRBC; human RBC membranes
T3 sequence (looked up): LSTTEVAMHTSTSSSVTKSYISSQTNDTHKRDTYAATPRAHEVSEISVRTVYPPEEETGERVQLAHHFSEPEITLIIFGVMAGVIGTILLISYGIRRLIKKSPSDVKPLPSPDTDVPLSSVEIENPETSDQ
The experiment is described as follows: Fab 7 ug/ml on intact human RBC, unbound Fab by ELISA; pre-dilution.
Method: The binding of affinity matured Fab antibodies to intact human RBC was also measured. Human RBC were isolated from fresh anti-coagulated normal human blood by centrifugation through a ficol gradient and washing in PBS buffer. RBC diluted to 1/10th of normal hematocrit were incubated with purified Fab antibodies at a final concentration of 7 ug/ml for 1 hour at room temperature on a rotating shaker after which a sample was taken and the RBC were pelleted by centrifugation and the supernatant was collected. The remaining RBC suspension was diluted 200-fold in PBS buffer and incubated for a total of 2 hours at room temperature on a rotating shaker and samples were removed at 0, 5 min, 20 min, 1 h and 2 h and the RBC pelleted and the supernatant collected. The amount of Fab in the supernatants was then measured using an ELISA assay and the results used to calculate the percentage of the input Fab that was bound to the RBC. […] The percentage that remains bound after 200-fold dilution of the RBC suspension is an indication of the overall strength of the binding to human RBC.

Experiment [4] addresses T3, human glycophorin A on human red blood …. The experiment is described as follows: SPR (Biacore), Fab on human RBC membranes; T½ = 0.69/kd; * not accurate.
Method: (§2) Kinetic analysis of the antibody binding to human red blood cell membranes was also performed using surface plasmon resonance (SPR) using a Biacore instrument. In this assay membranes prepared from human red blood cells were attached to a L1 sensor matrix and antibodies were flowed over the RBC membranes.
(§3) The binding kinetics of the affinity matured Fab antibodies was also measured.
Experiment [5] shares this target. As to the kind of experiment: SPR (Biacore), Fab on human RBC membranes; * not accurate, instrument limit.
Method: as §2, §3
The target in experiment [6] is T2, Cynomolgus monkey glycophorin A on …. The experiment is described as follows: Fab on intact cyno RBC, unbound Fab by ELISA; 0 min after 200-fold dilution.
Method: as §1
The target is the same in experiment [7]. As to the kind of experiment: Fab on intact cyno RBC, unbound Fab by ELISA; 5 min after 200-fold dilution.
Method: as §1
The target is the same in experiment [8]. As to the kind of experiment: Fab on intact cyno RBC, unbound Fab by ELISA; 20 min after 200-fold dilution.
Method: as §1
Experiment [9] shares this target. As to the kind of experiment: Fab on intact cyno RBC, unbound Fab by ELISA; 60 min after 200-fold dilution.
Method: as §1
Experiment [10] has the same target. As to the kind of experiment: Fab on intact cyno RBC, unbound Fab by ELISA; 120 min after 200-fold dilution.
Method: as §1
Experiment [11] addresses T4, native human glycophorin A protein (human, UniProt P02724 20-150).
T4 construct: mature; also called Hu-nat GPA
T4 sequence (looked up): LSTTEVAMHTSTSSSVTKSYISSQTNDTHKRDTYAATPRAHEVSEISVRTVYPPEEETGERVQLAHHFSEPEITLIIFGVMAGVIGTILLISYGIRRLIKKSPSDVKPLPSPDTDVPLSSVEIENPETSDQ
As to the kind of experiment: ELISA, Fab on coated native human GPA.

Experiment [12] addresses T2, Cynomolgus monkey glycophorin A on …. As to the kind of experiment: ELISA, Fab on coated cyno RBC membranes.
The target in experiment [13] is T3, human glycophorin A on human red blood …. As to the kind of experiment: ELISA, Fab on coated human RBC membranes.
Method: These membranes are prepared by first isolating red blood cells from citrated whole blood. Citrated whole blood is layered on to Ficol and centrifuged at low speed for 20 minutes to pellet the red blood cells. The supernatant containing plasma and other blood cells is discarded and the red blood cell pellet is subsequently washed 3 times in 10 cell volumes of phosphate buffered saline (PBS). A 10 ml pellet of purified red blood cells is resuspended in 30 ml of cold low osmorality 20 mM phosphate buffer (pH7.4) and incubated for 30 mins to break open the RBC. After Centrifugation at 10,000 rpm for 30 min at 5° C. the hemoglobin containing supernatant is discarded. To the membrane pellet another 30 ml of 20 mM phosphate buffer is added and the sample centrifuged again at 10,000 rpm for 30 min at 5° C. to pellet the membrane fraction. This wash and centrifugation step is repeated another 4 times. The red blood cell membranes are then resuspended in 20 mL of PBS to achieve an equivalent of approximately 2.5E9 cells/mL and stored frozen at −20° C. Binding of antibodies to RBC ghost can be measured by ELISA in which the RBC ghost suspension (5×10⁶ in 100 ul PBS) was added to each well of flat bottom 96-well ELISA microtiter plates (2HB, Immunolon) and the plates incubated overnight at 4° C. The plates were blocked with Starting blocking buffer (Thermo Fisher) for 2 hours at room temperature (RT). Antibodies or other test molecules were added to each well and incubated for 1.5 hours at RT. After 4 washes 100 ul of an appropriate detection antibody was added to each well and incubated for 1 hour at RT. After 4 washes the detection antibody was measured using appropriate detection reagents.
For experiment [14], the target named is T5, Cynomolgus monkey recombinant glycophorin A ectodomain (Cynomolgus monkey).
T5 construct: extracellular domain
The experiment is described as follows: ELISA, Fab on coated recombinant cyno GPA ectodomain.

Experiment [15] has as its target T6, recombinant human glycophorin A ectodomain protein (human, UniProt P02724 20-91).
T6 construct: 72 amino acids of the extracellular region; also called Hu-rec GPA
T6 sequence: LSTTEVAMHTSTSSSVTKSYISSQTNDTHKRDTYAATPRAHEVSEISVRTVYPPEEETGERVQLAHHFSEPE
As to the kind of experiment: ELISA, Fab on coated recombinant human GPA ectodomain.

The target in experiment [16] is T3, human glycophorin A on human red blood …. As to the kind of experiment: SPR (Biacore), Fab on human RBC membranes; T½ = 0.69/kd.
Method: as §2, §3
Experiment [17] has the same target. As to the kind of experiment: SPR (Biacore), Fab over human RBC membranes, 1:1 fit; * slight deviation possible.
Method: as §2

B1: TPP-7790, affinity matured 6C12 Fab (Fab, V domains shown)
VH: EVQLVQSGAEVKKPGASVKVSCKASGYTFTTYAIHWVRQAPGQGLEWMGYINPSSGYTRYNPKFKHRVTMTRDKSTSTAYMELRSLRSDDTAVYYCWTGTRDYWGQGTTVTVSS
VL: DIQLTQSPSFLSASVGDRVTITCRASSSVRYIYWFQQKPGKAPKLLIYATSFLQSGVPSRFSGSGSGTEYTLTISSLQPEDFATYYCHQRNSFPYTFGQGTKLEIK
notes: Tested as Fab with a 6xHIS tag
For the molecule B1, the “binding signal in ELISA (relative light units)” value in experiment [1] amounted to 7 RLU. Further, the “percentage of input antibody bound” value in [2] came out at 94%; in experiment [3] it was 91%; in experiment [6], 87%; in experiment [7] it was 90%; in [8], 90%; in experiment [9], 87%. Moreover, in experiment [10], the “percentage of input antibody bound” value stood at 85%. For the same molecule, the “Estimated T½” value in experiment [4] is 596 days. The molecule also came in with a dissociation constant (Kd) in [5] below 0.00233 nM. In experiment [5], this molecule showed a koff below 2e-05 s⁻¹.

B2: TPP-5906, humanized and germlined 6C12 Fab; VL: (S24R, A26S, S49A, P54Q, F95Y); VH: (I48M, D56G, D66G, L70M, T72R) (Fab, V domains shown)
VH: EVQLVQSGAEVKKPGASVKVSCKASGYTFTTYTIHWVRQAPGQGLEWMGYINPSSGYTRYNPKFKGRVTMTRDKSTSTAYMELRSLRSDDTAVYYCQTGTRDYWGQGTTVTVSS
VL: DIQLTQSPSFLSASVGDRVTITCRASSSVSYIYWFQQKPGKAPKLLIYATSTLQSGVPSRFSGSGSGTEYTLTISSLQPEDFATYYCHQRNSFPYTFGQGTKLEIKR
notes: The text says that a 6xHIS tag is present on the Fabs in the peptide ELISA; it is not in the printed chains
Regarding B2, the “binding in ELISA relative to parental Fab” value in [11] was 12.9 relative to parental Fab; in [12], 2.5 relative to parental Fab; in experiment [13], 93.5 relative to parental Fab; in experiment [14], 1.4 relative to parental Fab; in experiment [15], 7.2 relative to parental Fab. In addition, the “Estimated T½” value in experiment [16] was 0.00139 days. For the same molecule, the “binding signal in ELISA (relative light units)” value in [1] was -1 RLU. For the same molecule, in [3], the “percentage of input antibody bound” value is 93%. This molecule also showed an equilibrium dissociation constant (Kd) in experiment [17] of 0.9 nM. Besides, the koff in experiment [17] amounted to 0.0034 s⁻¹. Also, the kon in [17] turned out to be 4e+06 M⁻¹ s⁻¹.
